Results: publication PMC8653791, “TBX2 controls a proproliferative gene expression program in melanoma”

T1: Tbx2 T-box DNA-binding domain, TBX2(94-281) (UniProt Q60707 94-281)
T1 sequence: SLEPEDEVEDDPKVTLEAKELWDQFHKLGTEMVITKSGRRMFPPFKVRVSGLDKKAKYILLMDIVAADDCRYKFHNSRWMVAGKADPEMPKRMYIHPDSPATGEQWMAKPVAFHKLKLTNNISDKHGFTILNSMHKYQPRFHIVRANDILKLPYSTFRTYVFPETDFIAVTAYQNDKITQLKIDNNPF


Molecular target: T1, Tbx2 T-box DNA-binding domain, …
Assay: fluorescence anisotropy; 50 mM HEPES/NaOH pH 7.3, 200 mM NaCl, 25 C, 10 min, 3.33 nM dsDNA probe
Details: protein: recombinant, tags: N-terminal His tag removed by 3C protease (pETM14, NcoI/XhoI), blunt

Row | Binder | Kd (label: fluorescein (printed at the 3' end), self-complementary palindrome, 2 copies) [nM] | Kd (label: fluorescein on S14 (printed at the 3' end), complement unlabeled) [nM]
1 | T-element (T-box) probe (dsDNA) DNA 1: AATTTCACACCTAGGTGTGAAATT DNA 2: AATTTCACACCTAGGTGTGAAATT | ~602 | 
2 | E-box probe (dsDNA) DNA 1: GAGACCACGTGTTGAC DNA 2: GTCAACACGTGGTCTC |  | ~86
